Assay results as given in the supplement of paper PMC7877785.
± gives the uncertainty stated by the source.

Test: self-splicing fitness, log relative to wild type (ln ratio); higher = more splicing; Tetrahymena group I intron in knt gene, E. coli kanamycin selection, DiMSum; sequences stand for … in CUCUCU…GGAGGGAAAAGUUAUCAGGCAUGCACCUGGUAGCUAGUCUUUAAACCAAUAGAUUGCAUCGGUUUAAAAGGCAAGACCGUCAAAUUGCGGGAAAGGGGUCAACAGCCGUUCAGUACCAAGUCUCAGGGGAAACUUUGAGAUGGCCUUGCAAAGGGUAUGGUAAUAAGCUGACGGACAUGGUCCUAACCACGCAGCCAAGUCCUAAGUCAACAGAUCUUCUGUUGAUAUGGAUGCAGUUCACAGACUAAAUGUCGGUCGGGGAAGAUGUAUUCUUCUCAUAAGAUAUAGUCGGACCUCUCCUUAAUGGGAGCUAGCGGAUGAAGUGAUGCAACACUGGAGCCGCUGGGAACUAAUUUGUAUGCGAAAGUAUAUUGAUUAGUUUUGGAGUACUCGUGGUCG
How it was run: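 Pooled colonies went to amplicon sequencing on an Illumina HiSeq 2500 after six replicate transformations. The plates were LB agar with 100 μg/mL carbenicillin, 50 μM IPTG and 0.2% rhamnose, with or without 25 μg/mL kanamycin, incubated overnight at 37°C or 30°C. The E. coli BL21(DE3) library had all eight P1ex-region intron nucleotides randomised, the intron placed in the knt kanamycin-resistance gene on pET-22b(+). DiMSum fitness is the error-weighted combination of replicate fold changes, kanamycin against none, normalised to wild type.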

Sequence | self-splicing fitness (ln) (30 °C) | self-splicing fitness (ln) (37 °C)
GAACAGCAAUAUUACGAUGG | -3.04 ± 0.19 | -1.17 ± 0.13
GAACAGCAAUAUUACGCCAC | -3.15 ± 0.22 | 
GAACAGCAAUAUUACGCCGG | -1.56 ± 0.18 | -0.838 ± 0.24
GAACAGCAAUAUUACGCCGU | -1.98 ± 0.13 | -1.61 ± 0.13
GAACAGCAAUAUUACGCGAC | -2.3 ± 0.14 | -2.36 ± 0.18
GAACAGCAAUAUUACGCGAG | -2.2 ± 0.099 | -1.32 ± 0.11
GAACAGCAAUAUUACGCGAU | -2.87 ± 0.13 | -2.27 ± 0.14
GAACAGCAAUAUUACGCUGU | -3.8 ± 0.14 | -2.99 ± 0.19
GAACAGCAAUAUUACGGAAA | -2.42 ± 0.16 | -1.12 ± 0.14
GAACAGCAAUAUUACGGAAU | -1.6 ± 0.095 | -1.18 ± 0.11
GAACAGCAAUAUUACGGAGA | -1.55 ± 0.19 | -1.88 ± 0.13
GAACAGCAAUAUUACGGAGU | -2.35 ± 0.066 | -1.66 ± 0.1
GAACAGCAAUAUUACGGCCU | -1.14 ± 0.11 | -0.067 ± 0.14
GAACAGCAAUAUUACGGCUG | -2.78 ± 0.14 | -2.06 ± 0.15
GAACAGCAAUAUUACGGUAA | -1.2 ± 0.059 | -0.286 ± 0.064
GAACAGCAAUAUUACGGUAU | -0.973 ± 0.053 | -0.269 ± 0.074
GAACAGCAAUAUUACGGUUU | -3.41 ± 0.13 | -1.34 ± 0.14
GAACAGCAAUAUUACGUCAC | -3.44 ± 0.23 | -0.689 ± 0.17
GAACAGCAAUAUUACGUUUC | -4.43 ± 0.14 | -2.53 ± 0.14
GAAGAGCAAUAUUACGAAUA |  | -1.63 ± 0.35
GAAGAGCAAUAUUACGAAUG | -2.23 ± 0.4 | 
GAAGAGCAAUAUUACGACCA | -1.34 ± 0.14 | -1.46 ± 0.36
GAAGAGCAAUAUUACGACGA |  | -2.03 ± 0.42
GAAGAGCAAUAUUACGAGCG | -3.17 ± 0.2 | -0.882 ± 0.17
GAAGAGCAAUAUUACGAGUA | -3.78 ± 0.37 | -2.75 ± 0.38

Sequence | self-splicing fitness (ln) (30 °C) | self-splicing fitness (ln) (37 °C)
GAAGAGCAAUAUUACGAGUU | -2.61 ± 0.16 | -2.03 ± 0.21
GAAGAGCAAUAUUACGAUCU | -1.21 ± 0.14 | -0.955 ± 0.18
GAAGAGCAAUAUUACGAUUU | -1.31 ± 0.079 | -1.04 ± 0.14
GAAGAGCAAUAUUACGCCCU | -2.24 ± 0.22 | -1.38 ± 0.31
GAAGAGCAAUAUUACGCCGU | -2.88 ± 0.44 | -2.96 ± 0.43
GAAGAGCAAUAUUACGCGCG | -2.21 ± 0.3 | -1.36 ± 0.22
GAAGAGCAAUAUUACGCGUG | -2.43 ± 0.078 | -1.32 ± 0.085
GAAGAGCAAUAUUACGCUCG | -2.32 ± 0.21 | -1.37 ± 0.21
GAAGAGCAAUAUUACGCUCU | -3.53 ± 0.23 | -2.74 ± 0.24
GAAGAGCAAUAUUACGGAAC |  | -0.903 ± 0.29
GAAGAGCAAUAUUACGGAGA | -3.22 ± 0.31 | -1.88 ± 0.32
GAAGAGCAAUAUUACGGCAU | -1.96 ± 0.12 | -1.99 ± 0.17
GAAGAGCAAUAUUACGGGAG | -3.15 ± 0.19 | -2.19 ± 0.23
GAAGAGCAAUAUUACGGGGG | -3.04 ± 0.2 | -3.06 ± 0.29
GAAGAGCAAUAUUACGGUUU | -1.52 ± 0.12 | -0.796 ± 0.16
GAAGAGCAAUAUUACGUACU | -2.11 ± 0.15 | -0.163 ± 0.13
GAAGAGCAAUAUUACGUUCA | -1.33 ± 0.13 | -0.0689 ± 0.13
GAAGAGCAAUAUUACGUUCU | -3.88 ± 0.29 | -2.8 ± 0.27
GAAUAGCAAUAUUACGAAGU |  | -2.45 ± 0.2
GAAUAGCAAUAUUACGACCG | -1.03 ± 0.16 | -0.447 ± 0.2
GAAUAGCAAUAUUACGAUAU | -1.43 ± 0.068 | -0.744 ± 0.085
GAAUAGCAAUAUUACGAUGU | -1.3 ± 0.076 | -1.04 ± 0.12
GAAUAGCAAUAUUACGCAAG | -2.44 ± 0.17 | -1.54 ± 0.15
GAAUAGCAAUAUUACGCACG | -1.22 ± 0.15 | -0.764 ± 0.2
GAAUAGCAAUAUUACGCAUG | -0.0618 ± 0.089 | -0.902 ± 0.091

Sequence | self-splicing fitness (ln) (30 °C) | self-splicing fitness (ln) (37 °C)
GAAUAGCAAUAUUACGCCUA | -0.724 ± 0.13 | -0.0436 ± 0.16
GAAUAGCAAUAUUACGCGUG | -1.01 ± 0.075 | -0.747 ± 0.094
GAAUAGCAAUAUUACGGAGC | -3.44 ± 0.26 | -1.77 ± 0.21
GAAUAGCAAUAUUACGGCCG | -0.339 ± 0.18 | -0.0585 ± 0.21
GAAUAGCAAUAUUACGGCCU | -0.86 ± 0.075 | 0.112 ± 0.12
GAAUAGCAAUAUUACGGGUU | -2.48 ± 0.14 | -1.86 ± 0.17
GAAUAGCAAUAUUACGGUAU | -3.54 ± 0.18 | -1.32 ± 0.16
GAAUAGCAAUAUUACGGUUC | -3.69 ± 0.17 | -3.25 ± 0.33
GAAUAGCAAUAUUACGUAAC | -0.941 ± 0.11 | -1.63 ± 0.12
GAAUAGCAAUAUUACGUAGA | -3.35 ± 0.15 | -1.55 ± 0.11
GAAUAGCAAUAUUACGUCAU | -1.07 ± 0.1 | -0.865 ± 0.13
GAAUAGCAAUAUUACGUGAU | -3.48 ± 0.17 | -1.27 ± 0.11
GAAUAGCAAUAUUACGUGGG | -3.86 ± 0.21 | -2.81 ± 0.19
GAAUAGCAAUAUUACGUUGA | -2.6 ± 0.13 | -0.487 ± 0.09
GACAAGCAAUAUUACGAAGG | -4.06 ± 0.19 | -2.27 ± 0.19
GACAAGCAAUAUUACGAGAU | -3.73 ± 0.23 | -2.78 ± 0.23
GACAAGCAAUAUUACGAUAU | -1.33 ± 0.099 | -1.4 ± 0.1
GACAAGCAAUAUUACGAUUC | -0.734 ± 0.083 | -0.552 ± 0.12
GACAAGCAAUAUUACGCAUA | -0.868 ± 0.11 | -0.12 ± 0.15
GACAAGCAAUAUUACGCAUU | -2.91 ± 0.089 | -1.96 ± 0.11
GACAAGCAAUAUUACGCCAA | -2.03 ± 0.14 | -1.61 ± 0.12
GACAAGCAAUAUUACGCCUC | -2.68 ± 0.14 | -2.78 ± 0.28
GACAAGCAAUAUUACGCGGG | -2.84 ± 0.095 | -2.52 ± 0.14
GACAAGCAAUAUUACGCGUU | -4.47 ± 0.34 | -3 ± 0.35
GACAAGCAAUAUUACGCUAA | -3.01 ± 0.23 | -2.11 ± 0.2

Sequence | self-splicing fitness (ln) (30 °C) | self-splicing fitness (ln) (37 °C)
GACAAGCAAUAUUACGCUCA | -0.336 ± 0.056 | 0.274 ± 0.073
GACAAGCAAUAUUACGCUGC | -3.6 ± 0.16 | -2.87 ± 0.19
GACAAGCAAUAUUACGCUGU | -3.61 ± 0.25 | -1.12 ± 0.2
GACAAGCAAUAUUACGCUUU | -3.43 ± 0.42 | -2.11 ± 0.32
GACAAGCAAUAUUACGGCAC | 0.362 ± 0.075 | -0.214 ± 0.11
GACAAGCAAUAUUACGGCUA | -0.175 ± 0.074 | -0.187 ± 0.079
GACAAGCAAUAUUACGGGGG | -3.58 ± 0.15 | -3.18 ± 0.2
GACAAGCAAUAUUACGGGGU | -2.96 ± 0.12 | -3.16 ± 0.15
GACAAGCAAUAUUACGGGUG | -0.472 ± 0.065 | -0.733 ± 0.081
GACAAGCAAUAUUACGGUCU | -4.04 ± 0.16 | -2.42 ± 0.15
GACAAGCAAUAUUACGGUUU | -1.79 ± 0.079 | -0.351 ± 0.074
GACAAGCAAUAUUACGUAUG | -2.86 ± 0.11 | -1.23 ± 0.088
GACAAGCAAUAUUACGUGAC | -1.47 ± 0.096 | -1.42 ± 0.12
GACAAGCAAUAUUACGUUAA | -2.19 ± 0.12 | -1.71 ± 0.15
GACAAGCAAUAUUACGUUAG | -3.84 ± 0.2 | -3.34 ± 0.19
GACAAGCAAUAUUACGUUGA | -2.14 ± 0.09 | -1.48 ± 0.12
GACCAGCAAUAUUACGAAGG | -3.3 ± 0.13 | -2.19 ± 0.18
GACCAGCAAUAUUACGAGAU | -2.62 ± 0.12 | -1.05 ± 0.084
GACCAGCAAUAUUACGAGGG | -3.24 ± 0.2 | -2.57 ± 0.21
GACCAGCAAUAUUACGAUGU | -0.366 ± 0.055 | 0.0308 ± 0.072
GACCAGCAAUAUUACGCACU | -0.104 ± 0.06 | 0.195 ± 0.079
GACCAGCAAUAUUACGCAGG | -3.82 ± 0.21 | -2.49 ± 0.13
